Target: the molecule itself
Test: crystal structure (chains A and B in the asymmetric unit) and size exclusion chromatography

B1: PpArsN1 (ArsN1 arsinothricin N-acetyltransferase from Pseudomonas putida KT2440), one subunit (enzyme)
chain: MHSGIDIRVARPEDAEEIQIIYAPIVLNTAISFEEAVPSVEQMRERISTTLQTYPYLVAVREGRVVGYAYASQHRARAAYRWAVDVTVYVAEGQRRSGIARQLYDVLLPVLKRLGYRSAYAGIALPNEGSVGLHERLGFQHIGTFPQVGFKLDAWHDVGYWRFDFGDEGLHPEAPLGFLSQIPVPR
notes: Written as a single subunit; also called phoN1 gene product; not shown: C-terminal six histidine tag from vector pBAD-Myc/His-A; the vector-derived residues between protein and tag are not sta
- binding result: binds
